In one experiment the target is ActRII-ECD (mouse). Kind of experiment: SPR; Biacore 2000; receptor ECDs immobilised on a CM5 chip by primary amine coupling, ligands flowed over; at least five concentrations plus zero; global 1:1 Langmuir binding with mass transfer, KD calculated as koff/kon.
Chain of ActRII-ECD (mouse) (P27038 whole entry, the tested form may be a part): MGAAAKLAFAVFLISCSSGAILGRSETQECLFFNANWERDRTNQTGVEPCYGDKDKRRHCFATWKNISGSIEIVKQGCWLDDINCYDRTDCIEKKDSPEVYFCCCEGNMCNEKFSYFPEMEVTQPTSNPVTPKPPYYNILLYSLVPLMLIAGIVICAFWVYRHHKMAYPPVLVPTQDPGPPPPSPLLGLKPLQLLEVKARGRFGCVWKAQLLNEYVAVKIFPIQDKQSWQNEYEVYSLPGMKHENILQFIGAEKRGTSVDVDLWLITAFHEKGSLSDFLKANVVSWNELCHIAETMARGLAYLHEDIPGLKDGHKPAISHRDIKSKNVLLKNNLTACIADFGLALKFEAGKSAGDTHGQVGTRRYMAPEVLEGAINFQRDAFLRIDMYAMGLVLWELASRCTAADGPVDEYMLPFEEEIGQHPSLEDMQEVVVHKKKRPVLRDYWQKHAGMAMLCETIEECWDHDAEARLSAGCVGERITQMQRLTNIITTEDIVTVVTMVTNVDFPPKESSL

Turning to “BMP-2 (BBBBBB) (from UniProt P12643 283-396) (ligand)”, in the experiment with ActRII-ECD (mouse), the Kd is 36.8 nM, the koff is 0.0405 s⁻¹ and the on-rate constant (kon) is 1.1e+06 M⁻¹ s⁻¹.

B1: Activin-βA (AAAAAA) (ligand)
chain: GLECDGKVNICCKKQFFVSFKDIGWNDWIIAPSGYHANYCEGECPSHIAGTSGSSLSFHSTVINHYRMRGHSPFANLKSCCVPTKLRPMSMLYYDDGQNIIKKDIQNMIVEECGCS
On to B1, for which, in the experiment with ActRII-ECD (mouse), the dissociation constant (Kd) is 0.203 nM, the koff was 0.000716 s⁻¹ and the kon is 3.52e+06 M⁻¹ s⁻¹.

B2: Noggin (natural protein)
chain: QHYLHIRPAPSDNLPLVDLIEHPDPIFDPKEKDLNETLLRSLLGGHYDPGFMATSPPEDRPGGGGGAAGGAEDLAELDQLLRQRPSGAMPSEIKGLEFSEGLAQGKKQRLSKKLRRKLQMWLWSQTFCPVLYAWNDLGSRFWPRYVKVGSCFSKRSCSVPEGMVCKPSKSVHLTVLRWRCQRRGGQRCGWIPIQYPIISECKCSC
B2: the Smad1 luciferase reporter in C2C12 cells, 30 ng/ml ligand with 30, 100 and 300 ng/ml Noggin (% of signaling levels) with AB212 (BBBBBA) (human) was 75.

(Values after publication PMC3208551.)
